# Test results published in PMC7118173 (Nature Communications, 2020).
# Numbering of substitutions follows the chain as printed. In names and notes the source's numbering stands.
# B1: SepF: C. glutamicum SepF (cg2363), full-length (protein)
# chain: MSMLKKTKEFFGLAPYEAEHEDAYYADEPRYEGTAAYAPEYRERDYGYAPEAPAPVAPSPAPRSYQSTIVPVELHSFEDAQVIGGAFRDGDAVVFDMSLLSREEARRIVDFAAGLCFALRGKMQKIDSVTFAVVPELSNISTSELERAARIR
# modifications: left off: His6, N-terminal, cleaved | SUMO, N-terminal, cleaved
# B2: SepFK125E/F131A-Scarlet: Scarlet-tagged SepF impaired for FtsZ binding (protein)
# chain: B1 chain with K125E, F131A
# modifications: left off: mScarlet-I, C-terminal, kept
# Tests used:
# [1] = test system: C. glutamicum ATCC13032 whole-cell extracts; test: SepF and FtsZ quantification by Western blot; assay type: cell-based, Corynebacterium glutamicum; settings: 60 ugr loaded
# FtsZ [2] = test system: FtsZ
# Experimental: After, 100 µl of the mixture were place in a 96-well-plate that contained GTP at 2 mM final concentration. Reactions were incubated at room temperature for 10 min and 100 µl of the developing reagent was added. The mixture was incubated at room temperature for 25 min to allow development of the green color and absorbance was measured at 620 nm using a Varioskan™ LUX (Thermo Fisher Scientific). Reactions were performed in triplicate for each condition.
# [3] = Negative stain EM of SUVs with SepF; assay type: biochemical; settings: end-point of SepF + SUVs reaction, 50 μM
# FtsZ and SUVs = test: Cryo-EM of ternary complex FtsZ-GTP + SepF + SUVs; assay type: biochemical, C. glutamicum; settings: 100 μM SUVs, 10 μM SepF, 10 μM FtsZ, 3 mM GTP
# Experimental: 5 µl of sample were deposited onto glow-discharged lacey carbon copper grids (Ted Pella) and plunge-frozen in liquid ethane using a Leica EM-CPC. Cryo-EM data acquisition was performed on a JEOL 2200FS (Jeol, Japan) 200 kV cryo-electron microscope equipped with an Omega in-column energy filter. High magnification (30,000×, corresponding pixel size 0.32 nm) zero-loss (slit: 20 eV) images were collected at nominal defocus between 1 and 4 µm depending on the experiment on a Gatan USC1000 slow scan CCD camera.
# SepF [4] = test: SepF polymerization (turbidity) assay in the presence of SUVs; assay type: biochemical, C. glutamicum; settings: SepF (or mutant) plus SUVs 50 µM each, pH 6.9, 25 °C
# Experimental: When used, FtsZCTD was added at a final concentration of 100 μM.
# Reverse phase evaporation was used to prepare small unilamellar vesicles (SUVs). A 10 mM lipid solution made of an 8:2 mixture of 1-palmitoyl-2-oleoyl phosphatidylcholine (POPC) and 1-palmitoyl-2-oleoylglycero-3-phosphoglycerol (POPG) (Avanti Polar Lipids) was prepared as described. Chloroform was removed by evaporation under vacuum conditions and the dried phospholipid film was resuspended in a mixture of diethyl ether and buffer (25 mM Hepes pH 7.4, 10 mM MgCl2 and 150 mM KCl). Diethyl ether was eliminated by reverse phase evaporation and by slowly decreasing the pressure to the vacuum. SUVs were obtained by sonication during 30 min at 4 °C. The diameter and charge of SUV were determined by measuring dynamic light scattering (DLS) and electrophoretic mobility profiles on a Zetasizer Nano instrument (Malvern Instruments).
# Pino-sepF strain [5] = test: Growth curves / complementation of the Pino-sepF strain; settings: SepF depletion with 1% myo-inositol, exogenous construct induced
# Experimental: Positive colonies were grown in BHI media supplemented with 25 µg/ml kanamycin overnight at 30 °C and 120 rpm shaking.
# All strains were plated in CGXII media plates with 4% (w/v) sucrose as a carbon source for 2 days at 30 °C and then single colonies were inoculated in 10 ml of CGXII media 4% (w/v) sucrose overnight at 30 °C and 120 rpm shaking. The next day, 20 ml of CGXII media supplemented with the appropriate repressor or inducer were inoculated with the overnight cultures to a starting OD600 of 1. OD600 measurements were taken every 1.5 h. Each growth curve represents the average of three different growth curves originally from three different single colonies. […] When required, CGXII media 4% (w/v) sucrose was supplemented with either 1% (w/v) myo-inositol, 50 ng/ml tetracycline or 1% (w/v) gluconate and 25 μg/ml kanamycin.
# FtsZ [6] = settings: 400 nm, 25 °C, 600 s, 100 mM KCl, 10 mM MgCl2, 25 mM Pipes pH 6.9, 15 µM proteins, GTP
# Experimental: The mixture was placed into a quartz cuvette with a light path of 10 mm or a 96-well plate and 0.5−2 mM GTP or GMPCPP were added to the reaction mixture. Data acquisition started immediately using an UV–Visible Spectrophotometer (Thermo scientific Evolution 220) during 600 s at 25 °C using 400 nm for excitation and emission and spectra with slits widths of 1 nm or a Varioskan™ LUX plate reader (Thermo Fisher Scientific) with an excitation of 400 nm. Experiments were done in triplicates and measurements were taken every 15 s during 600 s and keeping a constant temperature of 25 °C.
# SepF [7] = test: Western blots of whole-cell extracts (SepF depletion / expression); assay type: cell-based, C. glutamicum; settings: SepF under Ptac, WT
# Experimental: 24 homogenizer. Crude extracts (120 μg) were analyzed by SDS-PAGE, electro-transferred onto a 0.2 μm Nitrocellulose membrane and blocked with 5% (w/v) skimmed milk. Membranes were incubated with an anti-SepF antibody (produced by Covalab, Supplementary Fig. 25a), an anti-FtsZ antibody (produced by Proteogenix, Supplementary Fig. 25b) or an anti-mNeonGreen antibody (purchased from Chromotek) for 1 h at room temperature.
# FtsZ [8] = test system: FtsZ; remark: listed apart in the source
# Dynamic light scattering = assay type: physicochemical; settings: SUVs + SepF 50 µM each, pH 6.9, 25 °C
# Experimental: Polydispersity of the samples was measured using Dyna-pro Plate Reader (Wyatt technology) equipped with an 830 nm laser and a temperature control module. The Dynamics software (version 7.9) was used to schedule data acquisition and data analysis. For each well, 20 measurements of 10 s were averaged and this operation was repeated 20 times for each condition at 25 °C. For samples containing FtsZCTD, the peptide was used at a final concentration of 100 µM. All the experiments were carried out as minimum three biological and technical replicates.
# WT C. glutamicum = test: Number of ring-like structures per cell, overexpression in WT; assay type: cell-based, Corynebacterium glutamicum; settings: for ring-like structures per cell: overexpression in WT background
# [9] = Negative stain EM of SepF rings; assay type: physicochemical
# Experimental: For all samples, 400 mesh carbon coated grids (Electron Microscopy Sciences; CF 400-Cu) were glow-discharged on an ELMO system for 30 sec at 2 mA. 5 µl samples were applied onto the grids and incubated for 30 s, the sample was blotted, washed in 3 drops of water and then stained with 2% (weight/vol) uranyl acetate. Images were recorded on a Gatan UltraScan4000 charged coupled device (CCD) camera (Gatan) on a Tecnai T12 BioTWINLaB6 electron microscope operating at a voltage of 120 kV.
# Pino-sepF strain [10] = test: Scarlet fluorescence localization in the Pino-sepF strain; assay type: cell-based, Corynebacterium glutamicum; settings: 1% myo-inositol plus 1% gluconate
# Experimental: For imaging, cultures of C. glutamicum were grown in BHI or minimal medium CGXII during the day, and washed and inoculated into CGXII media for overnight growth. The following day cultures were diluted to OD600 = 1 and grown to the required OD (early exponential phase) for imaging. For HADA labeling, cultures were incubated with 0.5 mM HADA for 20 min at 30 °C in the dark. Two percent agarose pads were prepared with the corresponding growth medium and cells were visualized using a Zeiss Axio Observer Z1 microscope fitted with an Orca Flash 4 V2 sCMOS camera (Hamamatsu), and a Pln-Apo 63×/1.4 oil Ph3 objective. Images were collected using Zen Blue 2.6 (Zeiss) and analyzed using the software Fiji[70] and the plugin MicrobeJ[71] to generate violin plots and fluorescent intensity heatmaps. Statistical analyses of cell lengths are summarized in Supplementary Tables 5 and 6. The experiments were performed as biological triplicates. Some autofluorescence is observed for wild-type C. glutamicum as shown in Supplementary Fig. 24.
# FtsZ [11] = settings: immunoprecipitation coupled to crosslinking; unpaired t-test p 0.004
# Experimental: Cells were harvested, washed, and normalized by resuspending cell pellets in PBS-T (1X PBS, 0.1% v/v Tween-80) to give a final OD600 of 3. The cell suspensions were cross-linked with 0.25% v/v of formaldehyde for 20 min at 30 °C with gentle agitation. The crosslinking reaction was stopped by adding 1.25 M glycine and incubated for 5 min at room temperature. Cells were resuspended in 50 mM Bis-Tris pH 7.4, 75 mM aminocaproic acid, 1 mM MgSO4, 1× Benzonase, 1× Complete Protease inhibitors cocktail (ROCHE) and disrupted at 4 °C with 0.1 mm glass beads and using a [sequence] 24 homogenizer. After lysis, 0.1% n-Dodecyl-β-D-Maltopyranoside was added and the total extract was incubated for 1 h at 4 °C. Cell lysates were centrifuged at 4 °C for 10 min at 14,000 rpm and the soluble fraction was collected and protein levels quantified.
# Detergent-solubilized protein extracts were incubated with 50 μl of magnetic beads cross-linked with 10 μg of purified anti-Scarlet antibody (produced by Covalab). […] Tryptic peptides from three replicates of each condition were analyzed using a nano-HPLC (Ultimate 3000, Thermo) coupled to a hybrid quadrupole-orbitrap mass spectrometer (Q-Exactive Plus, Thermo). […]
# Patternlab for proteomics was used for label-free quantitation analyses using extracted ion chromatogram (XIC).
# Pino-sepF strain [12] = test: Cell length distribution (violin plots), Pino-sepF strains; assay type: cell-based, Corynebacterium glutamicum; settings: 1% myo-inositol + 1% gluconate, t = 6, replicate 1, listed as PgntK_SepF(K125R/F131A)_Scarlet
# Experimental: For imaging, cultures of C. glutamicum were grown in BHI or minimal medium CGXII during the day, and washed and inoculated into CGXII media for overnight growth. The following day cultures were diluted to OD600 = 1 and grown to the required OD (early exponential phase) for imaging. For HADA labeling, cultures were incubated with 0.5 mM HADA for 20 min at 30 °C in the dark. Two percent agarose pads were prepared with the corresponding growth medium and cells were visualized using a Zeiss Axio Observer Z1 microscope fitted with an Orca Flash 4 V2 sCMOS camera (Hamamatsu), and a Pln-Apo 63×/1.4 oil Ph3 objective. Images were collected using Zen Blue 2.6 (Zeiss) and analyzed using the software Fiji[70] and the plugin MicrobeJ[71] to generate violin plots and fluorescent intensity heatmaps. […] The experiments were performed as biological triplicates.
molecule,measurement,setting,value
B1,band volume in whole-cell extract,"[1]; ON S (over-night, sucrose)",455544
same,band volume in whole-cell extract,"[1]; ON S+G (over-night, sucrose + gluconate)",420204
same,band volume in whole-cell extract,"[1]; T6 S (6 h, sucrose)",522995
same,band volume in whole-cell extract,"[1]; T6 S+G (6 h, sucrose + gluconate)",618345
same,effect on GTPase activity of FtsZ,"FtsZ [2]; 15 µM SepF and FtsZ, F test p=0.5872",did not significantly affect the GTPase activity of FtsZ
same,"GTPase activity (phosphate release), mean","FtsZ [2]; 15 µM each, 2 mM GTP, pH 6.9, room temperature, 10 min, mean, n = 11",0.09 nmol
same,vesicle morphology by EM,[3],lipid vesicles were tubulated
same,lipid binding in ternary complex,FtsZ and SUVs,dimeric form of SepF retains lipid-binding capability
same,polymerization with SUVs (turbidity),SepF [4],SepF concentration-dependent polymerization
same,complementation of SepF depletion (growth),Pino-sepF strain [5],rescued
same,effect on FtsZ polymerization / bundling,FtsZ [6],strong FtsZ bundling effect
same,protein overexpression upon induction,SepF [7],~ 30 fold
same,FtsZ filament morphology by EM,FtsZ [8],"thick bundles of FtsZ protofilaments, as well as highly curved filaments"
same,particle size by DLS,Dynamic light scattering,formation of large structures
same,ring-like structures per cell,WT C. glutamicum,multiple-rings phenotype is not observed
same,ring-like structures by EM,[9],unsuccessful
B2,localization of Scarlet construct,Pino-sepF strain [10],diffuse in the cytoplasm
same,fold reduction of FtsZ binding (normalized FtsZ) versus SepF-Scarlet,FtsZ [11],7.2 fold
same,complementation of SepF depletion (growth),Pino-sepF strain [5],completely failed to complement
same,mean cell length,Pino-sepF strain [12],9.96
same,frequency of cells with n septa (ring-like structures),"WT C. glutamicum; n septa 0, replicate 1",0.122
same,frequency of cells with n septa (ring-like structures),"WT C. glutamicum; n septa 0, replicate 2",0.074
same,frequency of cells with n septa (ring-like structures),"WT C. glutamicum; n septa 0, replicate 3",0.099
same,frequency of cells with n septa (ring-like structures),"WT C. glutamicum; n septa 1, replicate 1",0.227
same,frequency of cells with n septa (ring-like structures),"WT C. glutamicum; n septa 1, replicate 2",0.25
same,frequency of cells with n septa (ring-like structures),"WT C. glutamicum; n septa 1, replicate 3",0.189
same,frequency of cells with n septa (ring-like structures),"WT C. glutamicum; n septa 2, replicate 1",0.246
same,frequency of cells with n septa (ring-like structures),"WT C. glutamicum; n septa 2, replicate 2",0.193
same,frequency of cells with n septa (ring-like structures),"WT C. glutamicum; n septa 2, replicate 3",0.186
same,frequency of cells with n septa (ring-like structures),"WT C. glutamicum; n septa 3, replicate 1",0.241
same,frequency of cells with n septa (ring-like structures),"WT C. glutamicum; n septa 3, replicate 2",0.22
same,frequency of cells with n septa (ring-like structures),"WT C. glutamicum; n septa 3, replicate 3",0.232
same,frequency of cells with n septa (ring-like structures),"WT C. glutamicum; n septa 4, replicate 1",0.102
same,frequency of cells with n septa (ring-like structures),"WT C. glutamicum; n septa 4, replicate 2",0.152
same,frequency of cells with n septa (ring-like structures),"WT C. glutamicum; n septa 4, replicate 3",0.133
same,frequency of cells with n septa (ring-like structures),"WT C. glutamicum; n septa 5, replicate 1",0.042
same,frequency of cells with n septa (ring-like structures),"WT C. glutamicum; n septa 5, replicate 2",0.077
same,frequency of cells with n septa (ring-like structures),"WT C. glutamicum; n septa 5, replicate 3",0.11
same,frequency of cells with n septa (ring-like structures),"WT C. glutamicum; n septa 6, replicate 1",0.014
same,frequency of cells with n septa (ring-like structures),"WT C. glutamicum; n septa 6, replicate 2",0.03
same,frequency of cells with n septa (ring-like structures),"WT C. glutamicum; n septa 6, replicate 3",0.033
same,frequency of cells with n septa (ring-like structures),"WT C. glutamicum; n septa 7, replicate 1",0.006
same,frequency of cells with n septa (ring-like structures),"WT C. glutamicum; n septa 7, replicate 2",0.003
same,frequency of cells with n septa (ring-like structures),"WT C. glutamicum; n septa 7, replicate 3",0.015
same,ring-like structures per cell,WT C. glutamicum,net increase in the number of ring-like structures per cell
